Data from the RNAGym collection of RNA variant scans (doi:10.1093/molbev/msab373).

B1: Azoarcus group I ribozyme (parent)
chain: GUGCCUUGCGCCGGGAAACCACGCAAGGGAUGGUGUCAAAUUCGGCGAAACCUAAGCGCCCGCCCGGGCGUAUGGCAACGCCGAGCCAAGCUUCGGCGCCUGCGCCGAUGAAGGUGUAGAGACUAGACGGCACCCACCUAAGGCAAACGCUAUGGUGAAGGCAUAGUCCAGGGAGUGGCGAAAGUCACACAAACCGG

Variants of: B1
Test: reverse-splicing fitness (ratio to wild type); higher = more active; in vitro selection; Mg2+ level not given
In short: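 An in vitro group I ribozyme library with randomized positions was T7-transcribed and gel-purified. In triplicate, 10 pmol RNA in EPPS pH 7.5 was reacted with 50 pmoles of a 30-nt RNA substrate for 1 h at 37 °C across several added MgCl2 levels (1–48 mM), then stopped with EDTA. Products were reverse transcribed from a substrate-complementary primer, PCR-amplified and sequenced (HiSeq 4000). Fitness is a variant's read proportion after selection over that before, normalised to wild type.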

Going from GUGCCUUGCGCCGGGAAACCACGCAAGGGAUGGUGUCAAAUUCGGCGAAACCUAAGCGCCCGCCCGGGCGUAUGGCAACGCGGAGCCAAGCUUCGGCGCCUGCGCCGAUGGAGGUGUAGAGACUAGACGGCACCCACCUAAGGCUAACGGUAUGGUGAAGGCAUAGUCGAGGGAGUGGCGAAAGUCACACAAACCGG [C82G A111G A145U C150G C169G] to GUGCCUUGCGCCGGGAAACCACGCAAGGGAUGGUGUCAAAUUCGGCGAAACCUAAGCGCCCGCCCGGGCGUAUGGCAACGCGGAGCCAAGCUUCGGCGCCUGCGCCGAUGGAGGUGUAGAGACUAGACGGCACCCACCUAAGGCUAACGGUAUGGUGAAGGCAUAGUCGAGGGAGAGGCGAAAGUCACACAAACCGG [C82G A111G A145U C150G C169G U176A], the reverse-splicing fitness rises from 0.00774 to 0.00911.

Compared with GUGCCUUGCGCCGGGAAACCACGCAAGGGAUGGUGUCAAAUUCGGCGAAACCUAAGCGCCCGCCCGGGCGUAUGGCAACGCGGAGCCAAGCUUCGGCGCCUGCGCCGAUGGAGGUGUAGAGACUAGACGGCACCCACCUAAGGCUAACGGUAUGGUGAAGGCAUAGUCGAGGGAGCGGCGAAAGUCACACAAACCGG [C82G A111G A145U C150G C169G U176C], GUGCCUUGCGCCGGGAAACCACGCAAGGGAUGGUGUCAAAUUCGGCGAAACCUAAGCGCCCGCCCGGGCGUAUGGCAACGCGGAGCCAAGCUUCGGCGCCUGCGCCGAUGGAGGUGUAGAGACUAGACGGCACCCACCUAAGGCUAACGGUAUGGUGAAGGCAUAGUCGAGGGAGGGGCGAAAGUCACACAAACCGG [C82G A111G A145U C150G C169G U176G] is lower in reverse-splicing fitness: 0.00969 for the first, 0.00579 for the second.

Going from GUGCCUUGCGCCGGGAAACCACGCAAGGGAUGGUGUCAAAUUCGGCGAAACCUAAGCGCCCGCCCGGGCGUAUGGCAACGCGGAGCCAAGCUUCGGCGCCUGCGCCGAUGGAGGUGUAGAGACUAGACGGCACCCACCUAAGGCUAACGGUAUGGUGAAGGCAUAGUCUAGGGAGUGGCGAAAGUCACACAAACCGG [C82G A111G A145U C150G C169U] to GUGCCUUGCGCCGGGAAACCACGCAAGGGAUGGUGUCAAAUUCGGCGAAACCUAAGCGCCCGCCCGGGCGUAUGGCAACGCGGAGCCAAGCUUCGGCGCCUGCGCCGAUGGAGGUGUAGAGACUAGACGGCACCCACCUAAGGCUAACGGUAUGGUGAAGGCAUAGUCUAGGGAGAGGCGAAAGUCACACAAACCGG [C82G A111G A145U C150G C169U U176A], the reverse-splicing fitness rises from 0.00934 to 0.00966.

First: GUGCCUUGCGCCGGGAAACCACGCAAGGGAUGGUGUCAAAUUCGGCGAAACCUAAGCGCCCGCCCGGGCGUAUGGCAACGCGGAGCCAAGCUUCGGCGCCUGCGCCGAUGGAGGUGUAGAGACUAGACGGCACCCACCUAAGGCUAACGGUAUGGUGAAGGCAUAGUCUAGGGAGCGGCGAAAGUCACACAAACCGG [C82G A111G A145U C150G C169U U176C]
Second: GUGCCUUGCGCCGGGAAACCACGCAAGGGAUGGUGUCAAAUUCGGCGAAACCUAAGCGCCCGCCCGGGCGUAUGGCAACGCGGAGCCAAGCUUCGGCGCCUGCGCCGAUGGAGGUGUAGAGACUAGACGGCACCCACCUAAGGCUAACGGUAUGGUGAAGGCAUAGUCUAGGGAGGGGCGAAAGUCACACAAACCGG [C82G A111G A145U C150G C169U U176G]
The reverse-splicing fitness of the first is higher: 0.016 for the first, 0.00577 for the second.

First: GUGCCUUGCGCCGGGAAACCACGCAAGGGAUGGUGUCAAAUUCGGCGAAACCUAAGCGCCCGCCCGGGCGUAUGGCAACGCGGAGCCAAGCUUCGGCGCCUGCGCCGAUGGAGGUGUAGAGACUAGACGGCACCCACCUAAGGCUAACGGUAUGGUGAAGGCAUAGUCCAGGGAGAGGCGAAAGUCACACAAACCGG [C82G A111G A145U C150G U176A]
Second: GUGCCUUGCGCCGGGAAACCACGCAAGGGAUGGUGUCAAAUUCGGCGAAACCUAAGCGCCCGCCCGGGCGUAUGGCAACGCGGAGCCAAGCUUCGGCGCCUGCGCCGAUGGAGGUGUAGAGACUAGACGGCACCCACCUAAGGCUAACGGUAUGGUGAAGGCAUAGUCCAGGGAGCGGCGAAAGUCACACAAACCGG [C82G A111G A145U C150G U176C]
The reverse-splicing fitness of the first is lower: 0.0185 for the first, 0.0287 for the second.

Going from GUGCCUUGCGCCGGGAAACCACGCAAGGGAUGGUGUCAAAUUCGGCGAAACCUAAGCGCCCGCCCGGGCGUAUGGCAACGCGGAGCCAAGCUUCGGCGCCUGCGCCGAUGGAGGUGUAGAGACUAGACGGCACCCACCUAAGGCUAACGGUAUGGUGAAGGCAUAGUCCAGGGAGGGGCGAAAGUCACACAAACCGG [C82G A111G A145U C150G U176G] to GUGCCUUGCGCCGGGAAACCACGCAAGGGAUGGUGUCAAAUUCGGCGAAACCUAAGCGCCCGCCCGGGCGUAUGGCAACGCGGAGCCAAGCUUCGGCGCCUGCGCCGAUGGAGGUGUAGAGACUAGACGGCACCCACCUAAGGCUAACGUUAUGGUGAAGGCAUAGUCCAGGGAGUGGCGAAAGUCACACAAACCGG [C82G A111G A145U C150U], the reverse-splicing fitness rises from 0.00715 to 0.261.

Compared with GUGCCUUGCGCCGGGAAACCACGCAAGGGAUGGUGUCAAAUUCGGCGAAACCUAAGCGCCCGCCCGGGCGUAUGGCAACGCGGAGCCAAGCUUCGGCGCCUGCGCCGAUGGAGGUGUAGAGACUAGACGGCACCCACCUAAGGCUAACGUUAUGGUGAAGGCAUAGUCAAGGGAGUGGCGAAAGUCACACAAACCGG [C82G A111G A145U C150U C169A], GUGCCUUGCGCCGGGAAACCACGCAAGGGAUGGUGUCAAAUUCGGCGAAACCUAAGCGCCCGCCCGGGCGUAUGGCAACGCGGAGCCAAGCUUCGGCGCCUGCGCCGAUGGAGGUGUAGAGACUAGACGGCACCCACCUAAGGCUAACGUUAUGGUGAAGGCAUAGUCAAGGGAGAGGCGAAAGUCACACAAACCGG [C82G A111G A145U C150U C169A U176A] is higher in reverse-splicing fitness: 0.00966 for the first, 0.015 for the second.

GUGCCUUGCGCCGGGAAACCACGCAAGGGAUGGUGUCAAAUUCGGCGAAACCUAAGCGCCCGCCCGGGCGUAUGGCAACGCGGAGCCAAGCUUCGGCGCCUGCGCCGAUGGAGGUGUAGAGACUAGACGGCACCCACCUAAGGCUAACGUUAUGGUGAAGGCAUAGUCAAGGGAGCGGCGAAAGUCACACAAACCGG [C82G A111G A145U C150U C169A U176C] gave a reverse-splicing fitness of 0.0132.
